The values below come from article PMC4823152.

In general, stoichiometry N refers to a count of units in the complex or per binding partner.

Assay in all cases: cryo-EM structure
Test [1] deals with φEL chaperonin (gene product 146 of Pseudomonas phage EL) (Pseudomonas phage EL).
Test [2] shares this target. This is another data set of the same source.
Test [3] has the same target. The source holds these as a separate data set.

Where two headings read alike, the source gives them in different places.

As for “φEL chaperonin (gene product 146 of Pseudomonas phage EL) (natural protein)”, the stoichiometry N in test [1] was determined as 14; in test [2], 7; in test [3] it was 14.
